These results are taken from article PMC7721647, “The Human RNA Helicase DDX21 Presents a Dimerization Interface Necessary for Helicase Activity” (iScience, 2020).

What all share (assay): fluorescence polarization; 50 mM KCl; FP: 50 mM Tris pH 7.5, 50 mM KCl, 5 mM MgCl2, no ATP; Hill-slope fit; temperature not given in the material
Holding throughout (details): protein: recombinant; label: 5'-FAM; G4

For one data set, the target named is T1, DDX21Core (human, UniProt Q9NR30 186-564).
T1 sequence: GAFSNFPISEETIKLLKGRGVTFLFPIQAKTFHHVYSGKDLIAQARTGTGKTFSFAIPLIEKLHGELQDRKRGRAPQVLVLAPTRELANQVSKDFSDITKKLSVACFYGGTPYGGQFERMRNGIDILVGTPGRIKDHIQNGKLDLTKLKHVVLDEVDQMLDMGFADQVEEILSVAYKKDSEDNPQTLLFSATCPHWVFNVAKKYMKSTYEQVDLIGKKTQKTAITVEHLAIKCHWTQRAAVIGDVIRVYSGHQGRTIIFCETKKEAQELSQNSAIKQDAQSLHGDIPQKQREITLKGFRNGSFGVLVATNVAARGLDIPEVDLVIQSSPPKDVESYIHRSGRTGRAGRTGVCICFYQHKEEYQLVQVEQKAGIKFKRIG

The next data set has as its target T2, DDX21Fl monomer (human, UniProt Q9NR30 1-783, L611R;A612R;A613R;A614R;L615R;A616R).
T2 sequence: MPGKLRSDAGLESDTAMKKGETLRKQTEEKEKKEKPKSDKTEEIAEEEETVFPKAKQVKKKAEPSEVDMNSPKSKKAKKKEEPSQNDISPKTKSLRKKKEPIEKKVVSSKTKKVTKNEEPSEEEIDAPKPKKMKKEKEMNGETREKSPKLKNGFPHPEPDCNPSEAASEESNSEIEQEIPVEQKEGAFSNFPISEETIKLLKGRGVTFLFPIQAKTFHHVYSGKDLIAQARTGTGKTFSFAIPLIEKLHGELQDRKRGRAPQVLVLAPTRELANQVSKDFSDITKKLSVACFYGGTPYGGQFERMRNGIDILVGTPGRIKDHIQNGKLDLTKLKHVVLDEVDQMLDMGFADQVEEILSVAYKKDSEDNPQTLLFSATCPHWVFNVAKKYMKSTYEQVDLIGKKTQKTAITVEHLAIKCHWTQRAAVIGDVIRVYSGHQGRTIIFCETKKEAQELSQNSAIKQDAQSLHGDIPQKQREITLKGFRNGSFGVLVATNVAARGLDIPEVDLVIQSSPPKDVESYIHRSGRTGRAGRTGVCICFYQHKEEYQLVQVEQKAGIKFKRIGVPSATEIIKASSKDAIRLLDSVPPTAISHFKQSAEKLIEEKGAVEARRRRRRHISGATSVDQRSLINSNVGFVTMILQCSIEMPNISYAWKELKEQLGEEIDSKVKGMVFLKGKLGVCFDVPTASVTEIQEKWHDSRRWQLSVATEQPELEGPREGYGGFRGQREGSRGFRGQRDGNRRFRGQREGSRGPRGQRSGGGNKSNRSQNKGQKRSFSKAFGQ

Another data set has as its target T3, DDX21ΔN monomer (human, UniProt Q9NR30 186-783, L611R;A612R;A613R;A614R;L615R;A616R).
T3 sequence: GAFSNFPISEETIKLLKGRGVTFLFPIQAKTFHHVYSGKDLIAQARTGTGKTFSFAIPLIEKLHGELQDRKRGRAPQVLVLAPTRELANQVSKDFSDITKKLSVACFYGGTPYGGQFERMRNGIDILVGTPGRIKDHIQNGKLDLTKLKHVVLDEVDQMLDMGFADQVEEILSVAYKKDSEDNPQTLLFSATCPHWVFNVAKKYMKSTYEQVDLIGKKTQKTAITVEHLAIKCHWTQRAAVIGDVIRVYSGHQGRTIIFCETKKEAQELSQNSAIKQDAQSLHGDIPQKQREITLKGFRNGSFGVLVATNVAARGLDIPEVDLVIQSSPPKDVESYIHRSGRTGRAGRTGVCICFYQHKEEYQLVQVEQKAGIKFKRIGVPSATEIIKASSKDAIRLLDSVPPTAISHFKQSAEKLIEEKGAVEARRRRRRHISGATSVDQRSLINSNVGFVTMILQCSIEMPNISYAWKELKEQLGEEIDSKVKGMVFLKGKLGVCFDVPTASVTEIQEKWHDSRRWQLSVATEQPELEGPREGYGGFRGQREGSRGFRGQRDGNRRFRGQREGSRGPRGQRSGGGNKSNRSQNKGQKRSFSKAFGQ

By Kd is commonly meant the constant that tells how readily two partners part at equilibrium. GUUGGGGCGGGCGUUGGGUUUGGGGGGACG (structured_RNA) [Q2 RNA G-quadruplex]: the Kd in the data set with DDX21Core was determined as 62.5 ± 4.9 nM; with DDX21Fl monomer, 9.8 ± 0.9 nM; in the data set with DDX21ΔN monomer it was 2.9 ± 0.3 nM.
